From the nanobody polyreactivity screen of Harvey et al. (2022)

Experiment: yeast display, Sf9 membrane polyspecificity reagent, FACS + sequencing; frameworks hold sequencing errors
Outline: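 A synthetic nanobody library was expressed on Saccharomyces cerevisiae BJ5465 by galactose induction for 36–48 hours. The library was stained for 1 hour at 4 °C with 10% biotinylated, detergent-solubilized Sf9 membrane reagent and enriched with streptavidin microbeads before FACS. Low and high (top ~1%) gates were set on anti-HA fluorescence for expression and streptavidin fluorescence for reagent binding, and each polyreactivity label reflects the gate of origin.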

Sequence	polyreactivity (PSR sort gate)
QVQLVESGGGLVQAGGSLRLSCAASGSIFVRNGMGWYRQAPGKDRELVASITSGTITYYADSVKGRFTISRDNAKNTVYLQMNSLKPEDTAVYDCNAGWRSSRFKRPYFRERNYWGQGTQLTVSS	high polyreactivity
QVQLVESGGGLVQAGGSLRLSCAASGSIFVSYAMGWYRQAPGKERELVAAITSAGTTYYADSVKGRFTISRDNAKNTVYLQMNSLKPEDTAVYYCNADTYGYYLWTGAVSAGDDYWGQGTQVTVSS	low polyreactivity
QVQLVESGGGLVQAGGSLRLSCAASGSIFVSYAMGWYRQAPGKERELVAAITYSGGRTYYADSVKGRFTISRDNAKNTVYLQMNCLKPEDTAVYYCAKRVSYPVRFPYFSYDYWGQGTQVTVSS	low polyreactivity
QVQLVESGGGLVQAGGSLRLSCAASGSIFVTNAMGWYRQAPGKERELVAAISVSGGSTYYADSEKGRITISRDNAKNTVYLQMNRLKAEDTAGYYCNARQVFTTAGREMDYWGQGTQVTVSS	low polyreactivity
QVQLVESGGGLVQAGGSLRLSCAASGSIFVTNAMGWYRQAPGKERELVAAISWSGDNTYYADSVKGRFTISRDNAKNTFYLQMNSLIPEDTAVYYCSTDVWYSYDYYYGDWGYEYWGQGTQVTVSS	high polyreactivity
QVQLVESGGGLVQAGGSLRLSCAASGSIFVTNVMGWYRQAPGKERELVAVINSGGRTYYADSVKGRFTISRDNAKNTVYLQMNSLKPEDTAVYYCAKDSWSSFQSLYPEFDYWGQGTQVTVSS	low polyreactivity
QVQLVESGGGLVQAGGSLRLSCAASGSIFVWNAMGWYRQAPGKERELVAAITNICGRTYYADSVKGRFTISRDNAKNTVYLQMNSLKPEDTAVYYCNTDRVSRLGWSTTSDSWGQGTQVTVSS	high polyreactivity
QVQLVESGGGLVQAGGSLRLSCAASGSIFVWYAMGWYRQAPGRKELVAAISWSGGTTYYADSVKGRFTISRDNAKNTVYLQMNSLKPEDTAVYYCAARGAVQASFYYWGQGTQVTVSS	high polyreactivity
QVQLVESGGGLVQAGGSLRLSCAASGSIFVYNAMGWYRQAPGKERELVASITWSGGRTYYADSVKGRFTNSRDNAQNTVYLQMNSLKPEDTAVYYCAADSPRGYDYWGQGTQVTVSS	high polyreactivity
QVQLVESGGGLVQAGGSLRLSCAASGSIFVYVMGWYRQAPGKERELVAAISSGGSTDYADSVKGRFTISRDNAQNTVYLQMNSLKPEDTAVYYCAADTDTGYTYYYWGQGTQVTVSS	low polyreactivity
QVQLVESGGGLVQAGGSLRLSCAASGSIFVYYAMGWYRQAPGKERELVAAINFRGGNTYYADSVKGRFTISRDNAKNTVYLQMNSLKPEDTAVYYCAADYRWKWIGGARYDYWGQGTQVTVSS	low polyreactivity
QVQLVESGGGLVQAGGSLRLSCAASGSIFVYYAMGWYRQAPGKERELVAAISQRGGRTYYADSVKGRFTISRDNAKNTVYLQMNSLKPEDTAVYYCAADSGPASAGYYYWGQGTQVTVSS	high polyreactivity
QVQLVESGGGLVQAGGSLRLSCAASGSIFVYYAMGWYRQAPGKERELVAAISSGGRTYYADSVKGRFTISRDNAKNTVSLQMNSLKPEDTAVYYCNAVHYFQYGYYSWGQGTQVTVSS	high polyreactivity
QVQLVESGGGLVQAGGSLRLSCAASGSIFVYYAMGWYRQAPGKERELVAAITRRGGSTYYADSVKGRFTISRDNAKNTVYLQMNSLKPEDTAVYYCNSYTSRQYGLEYWGQGTQVSVSS	high polyreactivity
QVQLVESGGGLVQAGGSLRLSCAASGSIFVYYAMGWYRQAPGKERELVAAITSGGSTNYADSVKGRFTISRDNAQNTVYLQMNSLKPEDTAVYYCAVVTRAHPEDYWGQGTQVTVSS	high polyreactivity
QVQLVESGGGLVQAGGSLRLSCAASGSIFVYYAMGWYRQAPGKERELVAGISTSGGSTYYADSVKGRFTISRDNAKNTVYLQMNSLKPEDTAVYYCAAVDSFGYYKLYEYWGQGTQVTVSS	high polyreactivity
QVQLVESGGGLVQAGGSLRLSCAASGSIFVYYAMGWYRQAPGKERELVATITNDGSTYADSVKGRFTISRDNAKNTVYLQMNSLKPEDTAVYYCAAKIPSDRTIYDYWGQGTQVTVSS	low polyreactivity
QVQLVESGGGLVQAGGSLRLSCAASGSIFVYYTMGWYRKAPGKERELVASIDSGDRTNYADSVKGRFTISRDNAKNTVYLQMNSLKPEDTAVYYCAARHSRSWRFNSRRRYGYWGQGTQVTVSS	high polyreactivity
QVQLVESGGGLVQAGGSLRLSCAASGSIFWDNAMGWYRQAPGKERELVAAITSSGDTTYYADSVKGRFTISRDNAKNTVYVQMNSLKPEDTAVYYCAKVFGPTDYLTGTFKGDYWGQGTQVTVSS	low polyreactivity
QVQLVESGGGLVQAGGSLRLSCAASGSIFWGNAMGWYRQAPGKERELVAAIDWSGGSTYYADSVKGRFTISRDNAKNTVYLQMNSLKPEDTAVYYCAASGRYDYDYWGQGTQVTVSS	low polyreactivity
QVQLVESGGGLVQAGGSLRLSCAASGSIFWGNAMGWYRQAPGKERELVAAITSGGSTNYADSVKGRFTISRDNAKNTVYLQMNSLKPEDTAVYYCIADVARVPFEFDYWGQGTQVTVSS	low polyreactivity
QVQLVESGGGLVQAGGSLRLSCAASGSIFWGNDMGWYRQAPGKERELVAGIRNSGTSTYYADSVKGRFTISRDNAKNTVYVQMNSLKPEDTAVYDCAAADGRQYSRYYWRGHDYWGQGTQVTVSS	low polyreactivity

Sequence	polyreactivity (PSR sort gate)
QVQLVESGGGLVQAGGSLRLSCAASGSIFWINAMGWYRQAPGKERELVADIDVSGGSTYYADSVKGRFTISRDNAKNTVYLQMNSLKPEDTAVYYCAADDYWAYLYYKTSEYDYWGQGTQVTVSS	low polyreactivity
QVQLVESGGGLVQAGGSLRLSCAASGSIFWIYAMGWYRQAPGKERELVATITRRGGSTYYADSVKGRFTISRDNAKNTGYLQMNSLKPEDSAVYYCATEPGYTYLTSYKYDYWGQGTQVTVSS	low polyreactivity
QVQLVESGGGLVQAGGSLRLSCAASGSIFWLYAMGWYRQAPGKERELVARINWSGGNTYYADSVKGRFTISRDNAKNTDYLQMNSLKPEDTAVYYCNARSQYRMNYWGQGTQVTGSS	low polyreactivity
QVQLVESGGGLVQAGGSLRLSCAASGSIFWNNAMGWYRQAPGKERELVAGISGGSTNYADSVKGRFTISRDNAKNTVYLQMNSLKPEDTAVYYCATERQWESRFEAYDYWGQGTQVTVSS	low polyreactivity
QVQLVESGGGLVQAGGSLRLSCAASGSIFWPYAMGWYRQAPGKERELVAAISSSGTSTYYADSVKGRFTISRDNAKNTVYLQMNSLKPEDTAVYYCAKELFTYPYEYWGQGTQVTVSS	low polyreactivity
QVQLVESGGGLVQAGGSLRLSCAASGSIFWQNAMGWYRQAPGKERELVAAISRNGGSTNYADSVKGRFTISRDNAKNTVYLQMNSLKPEDTAVYYCAAVGTVSRTVGYNYWGQGTQVTVSS	high polyreactivity
QVQLVESGGGLVQAGGSLRLSCAASGSIFWQNTMGWYRQAPGKERELVATISSGDSTYYADSVKGRFTISRDNAKNTVYLQMNSLKPEDTAVYYCNTTEHKYVSSFEYGYWGQGTQVTVSS	low polyreactivity
QVQLVESGGGLVQAGGSLRLSCAASGSIFWQYAMGWYRQAPGKERELVAAINWSGDTTYYADSVKGRFTISRDNAKNTVYLQMNSLKPEDTAVYFCAAVGGVSYGGSPKTHAGEDYWGQGTQVTVSS	low polyreactivity
QVQLVESGGGLVQAGGSLRLSCAASGSIFWSNAMGWYRQAPGKELELVAAITTSDGSTYYADSVKGRFTISRDNAKNTVYLQMNSLKPEDNAVYYCAADASTWYTEEYWGQGTQVTVSS	low polyreactivity
QVQLVESGGGLVQAGGSLRLSCAASGSIFWSYAMGWYRQAPGKERELVAAINWSGGRTYYADSVKGRFTISRDNAKNTVYLQMNSLKPEDTAVYYCNAPVHTAQGDEYDYWGQGTQVTVSS	high polyreactivity
QVQLVESGGGLVQAGGSLRLSCAASGSIFWSYDMGWYRQAPGKERELVATITSGDSTYYADSVKGRFTISRDNAKNTVYLQMNSLKPEDTAVYYCNVDVSVEVAYWGQGTQVTVSS	low polyreactivity
QVQLVESGGGLVQAGGSLRLSCAASGSIFWVYAMGWYRQAPGKERELVAAISSSGGRTYYADSVKGRFTISRDNAKNTVYLQMNSVKPEVTAVYYCAARWKTGYNYWGQGTQVTVSS	high polyreactivity
QVQLVESGGGLVQAGGSLRLSCAASGSIFWWNAMGWYRQAPGKERELVAAINWSTGRTYYADSVKGRFTISRDNAKNTVYLQMNSLKPEDTAVYYCNADSKSSYYWYLWYNYWGQGTQVTVSS	low polyreactivity
QVQLVESGGGLVQAGGSLRLSCAASGSIFWWNTMGWYRQAPGKERELVAAITFSGGSTYYADSVKGRFTISRDNAKNTVYLQMNSLKPEDTAVYYCNADGWVSVRGTWSDGGYWGQGTQVTVSS	low polyreactivity
QVQLVESGGGLVQAGGSLRLSCAASGSIFWYNAMGWYRQAPGKERELVAAINWSGGSTFYADSVKGRFTISRDNAKNTVFLQMNSLKPEDTAVYYCAADDWYTGYDYWGHGTQVTVSS	high polyreactivity
QVQLVESGGGLVQAGGSLRLSCAASGSIFWYNAMGWYRQAPGKERELVARISSSGDSTYYADSVKGRFTISRDNAKNTVYLQINSLKPEDTAVYYCNVDYWSISESSWGYYTSYDYWGQGTQVTVSS	high polyreactivity
QVQLVESGGGLVQAGGSLRLSCAASGSIFWYYAMGWYRQAPGKERELVAAISISGSTYYADSVKGRFTISRDNAKNTVYLQMNSLKPEDTAVYYCAARKFFWRSNYDYWGQGTQVNVSS	low polyreactivity
QVQLVESGGGLVQAGGSLRLSCAASGSIFWYYDMGWYRQAPGKERELVATISRTGRTYYADSVKGRFTISRDNAKNTVYLQMNSLKPEDTAVYYCAAVPRGWFSYPSGYDYWGQGTQVTVSS	high polyreactivity
QVQLVESGGGLVQAGGSLRLSCAASGSIFWYYGMGWYRPAPAKERELVAAISSGGSTNYADSVKGRFAISRDNAKNTVYIQMNSLKPEDTAVYYCAVRFTFPRYPASYSRYYYWGQGTQVTVSS	high polyreactivity
QVQLVESGGGLVQAGGSLRLSCAASGSIFWYYGMGWYRQAPGKERELVAAISSGGSTNYADSVKGRFAISRDNAKNTVYLQMNRLKPEDTAVYYCATKGYLWGQGTQVTVSS	high polyreactivity
QVQLVESGGGLVQAGGSLRLSCAASGSIFWYYVMGWYRPAPGKERELVAAISNVSTYYADSVKGRFTISRDNAKNTVYLQMNSLKPEDTAVYYCAARGLLWYYSWRYYYWGQGTQVTVSS	low polyreactivity
